Data from the nanobody polyreactivity screen of Harvey et al. (2022).

Assay: yeast display, Sf9 membrane polyspecificity reagent, FACS + sequencing; frameworks hold sequencing errors
Outline: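 A synthetic nanobody library was expressed on Saccharomyces cerevisiae BJ5465 by galactose induction for 36–48 hours. The library was stained for 1 hour at 4 °C with 10% biotinylated, detergent-solubilized Sf9 membrane reagent and enriched with streptavidin microbeads before FACS. Low and high (top ~1%) gates were set on anti-HA fluorescence for expression and streptavidin fluorescence for reagent binding, and each polyreactivity label reflects the gate of origin.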

Which “polyreactivity (PSR sort gate)” value does the source give for “QVQLVESGGGLVQAGGSLRLSCAASGRTFPYYAMGWYRQAPGKERELVAAITWSGGSTYYADSVKGRFTISRDNAKNTVYLQMNSLKPEDTAVYYCAKDYSRWGWNMGYWGQGTQVTVSS” here?
Its value is “high polyreactivity”.

Which “polyreactivity (PSR sort gate)” value does the source give for “QVQLVESGGGLVQAGGSLRLSCAASGRTFPYYVMGWYRQAPGKERELVATISSSGRTYYADSVKGRFTISRDNAKNTVYLQMNSLKPEDTAVYYCAARFRWNQNYHFYSWGQGTQVTVSS” here?
The value was “high polyreactivity”.

For “QVQLVESGGGLVQAGGSLRLSCAASGRTFQDNVMGWYRQAPGKETELVAAINTSSGSTYYADSVKGRFTISRDNAKNTVYLQMNSLKPEDTAVYYCFSYDYDYWGQGTQVTVSS”, which “polyreactivity (PSR sort gate)” value is on record?
The value was “low polyreactivity”.

Which “polyreactivity (PSR sort gate)” value does the source give for “QVQLVESGGGLVQAGGSLRLSCAASGRTFQGYAMGWYRQAPGKERDLVAAISTSGARTYYADSVKGRFTISRDNAKNTVYLQMNSLKPEDTAFYYCAAGGQGGDFGDDYWGQGTQVTVSS” here?
Its value is “high polyreactivity”.

Which “polyreactivity (PSR sort gate)” value does the source give for “QVQLVESGGGLVQAGGSLRLSCAASGRTFQGYSMGWYRQAPGKERELVAAISRSGGRTYYADSVKGRFTISRDNAKNTVYLQMNSLKPEDTAVYYCATDAFRDYGYWGQGTQVTVSS” here?
Its value is “high polyreactivity”.

For “QVQLVESGGGLVQAGGSLRLSCAASGRTFQRNAMGWYRQAPGKERELVAAITSGSRTNYADSVKGRFTISRDNAKNTVFLQMNSLKPEDTAVYYCAADYTWRNNYWGQGTQVTVSS”, which “polyreactivity (PSR sort gate)” value is on record?
The value was “high polyreactivity”.

Which “polyreactivity (PSR sort gate)” value does the source give for “QVQLVESGGGLVQAGGSLRLSCAASGRTFQRNVMGWYRQAPGKERELVAAISSSGGGTYYADSVQGRFTISRANAKNTVYLQMNSLKPDDTAVYYCAARYRSYGGYGYYYWGLGTQVTVSS” here?
The value was “high polyreactivity”.

With “QVQLVESGGGLVQAGGSLRLSCAASGRTFQRYTMGWYRPAPGKETELVAVITNGGTRTYYADYVKGRLTISRDYAKNTVYLQMNSLKPEYTAVYYCAARVRYTANYDYWGQGTQVTVSS” as the sequence, how does the “polyreactivity (PSR sort gate)” value read?
The value was “high polyreactivity”.

Which “polyreactivity (PSR sort gate)” value does the source give for “QVQLVESGGGLVQAGGSLRLSCAASGRTFQYNTMGWYRQAPGKERELVAAISRSGGTTYYADSVKGRFTISRDNAKNTVYLQMNSLKPEDTAVYYCAAANSYTFRYGSWGQGTEVTVSS” here?
Its value is “high polyreactivity”.

Which “polyreactivity (PSR sort gate)” value does the source give for “QVQLVESGGGLVQAGGSLRLSCAASGRTFQYNVMGWYRQAPGKEREFVAAITWNGGSTYYADSVKGRFTISRDNAKNTVYLQMNSLKPEDPAVYYCAARWTKKQEYGYWGQGTQVTVSS” here?
Its value is “low polyreactivity”.

Which “polyreactivity (PSR sort gate)” value does the source give for “QVQLVESGGGLVQAGGSLRLSCAASGRTFQYYAMGWYRQAPGKERELVAAISWSGARTYYADSVKGRFTISRDNAKNTVYLQMNSLKPEDTAVYYCAADRYWISLWYIMGYWGQGTQVTVSS” here?
Its value is “high polyreactivity”.

For “QVQLVESGGGLVQAGGSLRLSCAASGRTFQYYAMGWYRQAPGKERELVAAITRGDSTYYADSVKGRFTISRDNAKNTVYLQMNSLKPEDTAVYYCNAKLYKPPFDYWGQGTQVTVSS”, which “polyreactivity (PSR sort gate)” value is on record?
The value was “low polyreactivity”.

For “QVQLVESGGGLVQAGGSLRLSCAASGRTFQYYAMGWYRQAPGKERELVAAITSGGSTYYADSVKGRFTISRDNAKNTVYLQMNSLKPEDTAVYYCAASFYYSGHDDYWGQGTQVTVSS”, which “polyreactivity (PSR sort gate)” value is on record?
Its value is “low polyreactivity”.

For “QVQLVESGGGLVQAGGSLRLSCAASGRTFQYYAMGWYRQAPGKERVLVAAITSSGGSTYYADSVKGRFTISRHNAKNTVYLQMNSLKPEDTAVYYCAAEDGLQGNYNYGYDYWGQGTQVTVSS”, which “polyreactivity (PSR sort gate)” value is on record?
Its value is “low polyreactivity”.

Which “polyreactivity (PSR sort gate)” value does the source give for “QVQLVESGGGLVQAGGSLRLSCAASGRTFQYYTMGWYRQAPGKERELVAAISSSGVSTYYADSVKGRFTISRDNAKNTVYLQMNSLKPEDTAVYYCNAVSRARYHAAYDSWGQGTQVTVSS” here?
Its value is “high polyreactivity”.

For “QVQLVESGGGLVQAGGSLRLSCAASGRTFRANAMGWYRQAPGKERDLVAAITWDGGSTYYADSVKGRFTISRDNAKNTVYLQMNSLKPEDTAVYYCNTDPYLWGQGTQVTVSS”, which “polyreactivity (PSR sort gate)” value is on record?
Its value is “low polyreactivity”.

For “QVQLVESGGGLVQAGGSLRLSCAASGRTFRAYAMGWYRQAPGKERELVAGITSGGSTNYADSVKGRFTISRDNAKNTVYLQMNSLKPEDTAVYYCAAKTHSRTKVYTADYWGQGTQVTVSS”, which “polyreactivity (PSR sort gate)” value is on record?
The value was “high polyreactivity”.

For “QVQLVESGGGLVQAGGSLRLSCAASGRTFRAYSMGWYRQAPGKERELVAASSRSGGRTYYADSVKGRFTISRDNAKITVFFQINSLKPEDTAVYYCAAETKYNTHDYYYWGQATQVTVSS”, which “polyreactivity (PSR sort gate)” value is on record?
Its value is “high polyreactivity”.

Which “polyreactivity (PSR sort gate)” value does the source give for “QVQLVESGGGLVQAGGSLRLSCAASGRTFRCYAMGWYRQAPGKETELVAAITFSGGSTYYADSVKGRFTISRDNAKNTVYLQMNSLKPEDTAVYYCNAVYYRRKEYDYWGQGTQVTVSS” here?
The value was “high polyreactivity”.

With “QVQLVESGGGLVQAGGSLRLSCAASGRTFRFYAMGWYRQAPGKERELVAAITGSGGSTYYADSVKGRFTISRDNAKNTVYLQMNSLKPEDTAVYYCAAQRQQRYYNPEHYNYWGQGTQVTVSS” as the sequence, how does the “polyreactivity (PSR sort gate)” value read?
Its value is “low polyreactivity”.

With “QVQLVESGGGLVQAGGSLRLSCAASGRTFRFYAMGWYRQAPGKERELVAGITGGGSTNYADSVKGRFTISRDNAKNTVYLQMNSLKPEDTAVYSCNATIRYYRRGKLYDYWGQGTQVTVSS” as the sequence, how does the “polyreactivity (PSR sort gate)” value read?
The value was “high polyreactivity”.

For “QVQLVESGGGLVQAGGSLRLSCAASGRTFRFYARGWYRQAPGKERELVAAIRNGGRTNYADSVKGRFTISRDNAKISVFLQMNSLKPEDTAVYYCAIQPGISYRHYDYWGQGTQVTVSS”, which “polyreactivity (PSR sort gate)” value is on record?
The value was “high polyreactivity”.

For “QVQLVESGGGLVQAGGSLRLSCAASGRTFRGNAMGWYRQAPAKDRELVGAGGSTYYADSVKGRFTISRDNAKNTVYLQMNSLKPEASAVYYCGAALGFSRYSWFGYGYWGQGTQVTVSS”, which “polyreactivity (PSR sort gate)” value is on record?
Its value is “low polyreactivity”.

Which “polyreactivity (PSR sort gate)” value does the source give for “QVQLVESGGGLVQAGGSLRLSCAASGRTFRGNAMGWYRQAPGKERELVAVITSGDSTYYADSVKGRFTISRDNAKNTVYLQMNSLKPEDTAVYYCATKSRFSRGKAYYYWGQGTQVTVSS” here?
The value was “high polyreactivity”.

With “QVQLVESGGGLVQAGGSLRLSCAASGRTFRGNAMGWYRQAPGKEREVVAAISWSGGNTYYADSVKGRFTISRDNAKNTVYLQMNSLKPEDTAVYYCAAGSYWSPYGQSFWPKYDYWGQGTQVTVSS” as the sequence, how does the “polyreactivity (PSR sort gate)” value read?
Its value is “high polyreactivity”.

Which “polyreactivity (PSR sort gate)” value does the source give for “QVQLVESGGGLVQAGGSLRLSCAASGRTFRGNVMGWYRQAPGNEREFVAASTRSGSNTYYADSVKGRFTISRDYAKTTVYLQMNSLKPEDTAVYDCAKSVLLGYKRHDSWGQGTQVTVSS” here?
The value was “high polyreactivity”.

Which “polyreactivity (PSR sort gate)” value does the source give for “QVQLVESGGGLVQAGGSLRLSCAASGRTFRGYAMGWYRQAPGKERELVAAISWSGGSTYYADSVKGRFTISRDNAKNTVYLQMNSLKPEDTAVYYCNAVYRGVAYDYWGQGTQVTVSS” here?
The value was “high polyreactivity”.

Which “polyreactivity (PSR sort gate)” value does the source give for “QVQLVESGGGLVQAGGSLRLSCAASGRTFRGYAMGWYRQAPGKERELVAGISRSGGSTYYADSVKGRFTISRDNAKNTVYLQMNSLKPEDTAVYYCNAVPIYYAWRRNKPFDYWGQGTQVTVSS” here?
Its value is “low polyreactivity”.

With “QVQLVESGGGLVQAGGSLRLSCAASGRTFRGYTMGWYRQAPGKERELVAAINWSGGRTYYADSVKGRFTISRDYAKNTVYLQMNSLKPEDTAVYDCNAVTQITGSSDGDYWGQGTQVNVSS” as the sequence, how does the “polyreactivity (PSR sort gate)” value read?
The value was “high polyreactivity”.

With “QVQLVESGGGLVQAGGSLRLSCAASGRTFRHNAMGWYRQAPGKERELVAAISSSGTNTHYADSVKGRFTISRDNAKNTVYLQMNSLKPEDTAVYYCAADRWGARRKQYHENGYWGQGTQVTVSS” as the sequence, how does the “polyreactivity (PSR sort gate)” value read?
The value was “high polyreactivity”.

With “QVQLVESGGGLVQAGGSLRLSCAASGRTFRHNAMGWYRQAPGKERELVAANSSGGSTYYADSVKGRFTISRDNAKNTVYLQLYSLKREDTAVYYCAASRYRPYGGTTTDYWGQGTQLTVSS” as the sequence, how does the “polyreactivity (PSR sort gate)” value read?
Its value is “high polyreactivity”.

Which “polyreactivity (PSR sort gate)” value does the source give for “QVQLVESGGGLVQAGGSLRLSCAASGRTFRHNTMGWYRQAPGKEREFVAVITSSGGSTYYADSVKGRFTISRDNAKNTVYLQMNSLKPEDTAVYYCNAKYHLSRSTYYYWGQGTQVTVSS” here?
The value was “high polyreactivity”.
